Publication PMC4141822
Where a chain is given by its changes, count along the chain named.

Tests used:
Conditions in all cases: protein: recombinant; tags: none stated (pET24a); label: 5' 32P
Csa5 Y29A = molecular target: T1, Csa5 Y29A (Thermoproteus tenax Kra1, UniProt G4RJZ0 1-130, Y29A); experiment: EMSA; shift from 15 uM; EMSA: 100 mM HEPES/KOH pH 7, 10 mM beta-mercaptoethanol, 37 C 30 min, 6% native TBE PAGE; MST: 50 mM Tris-HCl pH 7.4, 150 mM NaCl, 0.05% Tween-20, 37 C 30 min
T1 sequence: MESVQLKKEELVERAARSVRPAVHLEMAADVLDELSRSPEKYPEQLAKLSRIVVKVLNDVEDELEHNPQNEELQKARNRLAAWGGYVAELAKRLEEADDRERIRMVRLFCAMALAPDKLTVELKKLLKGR

Csa5 D33A = molecular target: T2, Csa5 D33A (Thermoproteus tenax Kra1, UniProt G4RJZ0 1-130, D33A); experiment: as above
T2 sequence: T1 sequence with A29Y, D33A

Csa5 D30A/D33A = molecular target: T3, Csa5 D30A/D33A (Thermoproteus tenax Kra1, UniProt G4RJZ0 1-130, D30A;D33A); experiment: EMSA; defined shift from 30 uM; EMSA: 100 mM HEPES/KOH pH 7, 10 mM beta-mercaptoethanol, 37 C 30 min, 6% native TBE PAGE; MST: 50 mM Tris-HCl pH 7.4, 150 mM NaCl, 0.05% Tween-20, 37 C 30 min
T3 sequence: T1 sequence with A29Y, D30A, D33A

B1: non-target (NT) ssDNA 97 nt (ssDNA)
DNA: GTCGACTAATACGACTCACTATAGGCCTATCGCTTGTCCAACCGGGCTCCTCTATATGTCGTCATTAGCTTACCGCTGAGCAATAACTAGCAAGCTT
binding signal (Csa5 Y29A): ~10 % of WT binding
binding signal (Csa5 D33A): ~18 % of WT binding
binding signal (Csa5 D30A/D33A): ~4 % of WT binding
